Data taken from patent US20220193133A1 (CENTURY THERAPEUTICS, published 2022).

What was measured:
[1] = target: T1, B11 protein (humanized B11 VHH as ELISA antigen); test: periplasmic extract ELISA, absorbance 450 nm, single point
T1 construct: Panning used B11-Fc; the ELISA legend says only 'B11 protein'

[2] = target: T2, humanized B11 VHH CAR (hyLYSO_CW_P01_B11) on Nurkat cells; test: flow cytometry, VHH-Fc on CAR Nurkat cells, 3-fold dilutions 50 to 0.02 nM, anti-Fc APC, %Fc positive cells
T2 construct: also called B11 (p1649); P1649
Excerpt: (§1) […] Fc-fusion protein was detected via anti-Fc APC, and the percentage of cells that were positive for this detection method are shown. […] Controls include (i) no VHH-Fc added and (ii) the anti-VHH cocktail detection reagent (far right). The samples shown in the graphs for each protein appear in the order as specified in the legend.

[3] = target: T3, D04 protein (humanized D04 VHH as ELISA antigen); test: periplasmic extract ELISA, absorbance 450 nm, single point
T3 construct: Panning used biotinylated D04-Fc; the ELISA legend says only 'D04 protein'

[4] = target: T4, humanized D04 VHH CAR (hyLYSO_CW_P01_D04) on Nurkat cells or primary T cells; test: flow cytometry, VHH-Fc on CAR Nurkat cells, 3-fold dilutions 50 to 0.02 nM, anti-Fc APC, %Fc positive cells
T4 construct: also called D04 (p1648); P1650
Excerpt: as §1

[5] = target: T5, B11-his tagged VHH (humanized B11); test: Octet (BLI), anti-idiotype VHH-Fc vs his-tagged VHH; table title prints D04-his, its footnote prints B11-his
T5 construct: also called B11-his protein; B11 his-tagged protein

[6] = target: T6, D04-his tagged VHH (humanized D04); test: Octet (BLI), anti-idiotype VHH-Fc vs his-tagged VHH; table title prints B11-his, paragraph 353 ties these values to D04
T6 construct: also called LysoD04.His; D04 his-tagged protein

[7] = target: T7, chicken lysozyme (Hen Egg Lysozyme) (chicken, UniProt P00698 19-147, biotinylated); test: flow cytometry, CAR Jurkat cells + 10 ug/mL biotinylated lysozyme, streptavidin-APC, % positive cells
T7 construct: also called HEL; chicken egg white lysozyme
T7 sequence (P00698 19-147): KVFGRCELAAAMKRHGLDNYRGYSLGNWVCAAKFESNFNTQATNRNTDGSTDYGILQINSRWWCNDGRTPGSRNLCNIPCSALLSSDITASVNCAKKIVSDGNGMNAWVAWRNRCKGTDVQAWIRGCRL

human lysozyme = target: T8, human lysozyme (human, UniProt P61626 19-148, biotinylated); test: as above
T8 construct: also called human lysozyme protein
T8 sequence (looked up): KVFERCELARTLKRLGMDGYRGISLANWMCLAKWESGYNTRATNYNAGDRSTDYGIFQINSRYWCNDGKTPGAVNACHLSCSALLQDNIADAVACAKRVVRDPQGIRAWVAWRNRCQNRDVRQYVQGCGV

B1: huD04_CNTY2_D04 anti-idiotype VHH (periplasmic extract) (VHH)
VHH: EVQLLESGGGLVQPGGSLRLSCAASGLTFSGVCMGWFRQAPGKEREGVSAIYSSGSTYYADSVKGRFTISRDNSKNTLYLQMNSLRAEDTAVYYCAADRIPDLGEPCIGTTNLARTYNYWGQGTQVTVSS
notes: Screened as periplasmic extract; also called VHH of AMD81
Q: Does B1 bind [1]?
A: no binding

B2: AMD81 (Fc fusion)
VHH-Fc: EVQLLESGGGLVQPGGSLRLSCAASGLTFSGVCMGWFRQAPGKEREGVSAIYSSGSTYYADSVKGRFTISRDNSKNTLYLQMNSLRAEDTAVYYCAADRIPDLGEPCIGTTNLARTYNYWGQGTQVTVSS
notes: also called huD04_CNTY2_D04 anti-idiotype VHH IgG1-Fc fusion
Q: Does B2 bind [2]?
A: no binding (tested: 50 nM)

B3: huD04_CNTY2_F04 anti-idiotype VHH (periplasmic extract) (VHH)
VHH: EVQLLESGGGLVQPGGSLRLSCAASGRTFSSYGMGWYRQAPGKERELVSAISNRGSTYYADSVKGRFTISRDNSKNTLYLQMNSLRAEDTAVYYCAASPARVGVSGHSSSRRSYYGYSYDYWGQGTQVTVSS
notes: Screened as periplasmic extract; also called VHH of AMD70
Q: Does B3 bind [3]?
A: binds

B4: AMD70 (Fc fusion)
VHH-Fc: EVQLLESGGGLVQPGGSLRLSCAASGRTFSSYGMGWYRQAPGKERELVSAISNRGSTYYADSVKGRFTISRDNSKNTLYLQMNSLRAEDTAVYYCAASPARVGVSGHSSSRRSYYGYSYDYWGQGTQVTVSS
notes: also called huD04_CNTY2_F04 anti-idiotype VHH IgG1-Fc fusion
Q: Does B4 bind [4]?
A: binds

B5: AMD67 (Fc fusion)
VHH-Fc: EVQLLESGGGLVQPGGSLRLSCAASGRTFSSGAMGWYRQAPGKERELVSAISNRGSTVYADSVKGRFTISRDNSKNTLYLQMNSLRAEDTAVYYCAADRNPSSAGAGVAAYRLIARFNYWGQGTQVTVSS
notes: also called huD04_CNTY2_F09 anti-idiotype VHH IgG1-Fc fusion
Q: Does B5 bind [2]?
A: no binding (tested: 50 nM)

B6: AMD71 (huB11_CNTY3+4_A02 anti-idiotype VHH IgG1-Fc fusion) (Fc fusion)
chain: EVQLLESGGGLVQPGGSLRLSCAASGRTYTGSAMGWYRQAPGKERELVSAISTGGETYYADSVKGRFTISRDNSKNTLYLQMNSLRAEDTAVYYCAAGYVGLPYTYRPATSRRGYTYWGQGTQVTVSS
notes: not shown: IgG1 Fc
Q: With B6 as the binder, how does the Kd [5] read?
A: 515 nM

Q: And the Response [5]?
A: 0.0566

Q: And the koff [5]?
A: 0.14 s⁻¹

Q: What about the kon [5] of the same binder?
A: 273000 M⁻¹ s⁻¹

Q: Does B6 bind [4]?
A: no binding (tested: 50 nM)

B7: AMD82 (huD04_CNTY1_B12 anti-idiotype VHH IgG1-Fc fusion) (Fc fusion)
chain: EVQLLESGGGLVQPGGSLRLSCAASGRTSSNYVMGWYRQAPGKEREGVSAITSGGSTYYADSVKGRFTISRDNSKNTLYLQMNSLRAEDTAVYYCAANLYSRTGAYDYWGQGTQVTVSS
notes: not shown: IgG1 Fc
Q: How did the Response [5] turn out when B7 was run?
A: -0.0225

Q: And the Kd [6]?
A: 125 nM

Q: And the Response [6]?
A: 0.172

Q: What about the koff [6] of the same binder?
A: 0.0868 s⁻¹

Q: What about the kon [6] of the same binder?
A: 697000 M⁻¹ s⁻¹

Q: Does B7 bind [2]?
A: no binding (tested: 50 nM)

Q: And the “EC50 (read off the curve)” value [4]?
A: ~6 nM

B8: AMD87 (huD04_CNTY1_D11 anti-idiotype VHH IgG1-Fc fusion) (Fc fusion)
chain: EVQLLESGGGLVQPGGSLRLSCAASGSTFSYYYMGWYRQAPGKERELVSAISSGGSIYYADSVKGRFTISRDNSKNTLYLQMNSLRAEDTAVYYCARRTYYGDEADYWGQGTQVTVSS
notes: not shown: IgG1 Fc
Q: What does the source list for B8?
A: Response [5]: -0.0301; binding result [2]: no binding (tested: 50 nM)

B9: huD04_CNTY2_H12 anti-idiotype VHH (periplasmic extract) (VHH)
VHH: EVQLLESGGGLVQPGGSLRLSCAASGSIFSSDVMGWYRQAPGKERELVSAISSGGSTRYADSVKGRFTISRDNSKNTLYLQMNSLRAEDTAVYYCAATMGKSKTNRRNYGTWRYGAYAYWGQGTQVTVSS
notes: Screened as periplasmic extract; also called VHH of ABD72 (AMD72)
Q: Does B9 bind [3]?
A: binds

B10: AMD72 (huD04_CNTY2_H12 anti-idiotype VHH IgG1-Fc fusion) (Fc fusion)
chain: EVQLLESGGGLVQPGGSLRLSCAASGSIFSSDVMGWYRQAPGKERELVSAISSGGSTRYADSVKGRFTISRDNSKNTLYLQMNSLRAEDTAVYYCAATMGKSKTNRRNYGTWRYGAYAYWGQGTQVTVSS
notes: also called ABD72; not shown: IgG1 Fc
Q: Does B10 bind [4]?
A: binds

B11: huD04_CNTY2_D02 anti-idiotype VHH (periplasmic extract) (VHH)
VHH: EVQLLESGGGLVQPGGSLRLSCAASGFTFRSYAMGWYRQAPGKEREGVSVISSGGTPSYADSVKGRFTISRDNSKNTLYLQMNSLRAEDTAVYYCDAIMGLVEADYVSTGTYEYTAYAYWGQGTQVTVSS
notes: Screened as periplasmic extract; also called VHH of AMD80
Q: Which results are given for B11?
A: binding result [1]: no binding; binding result [3]: binds

B12: huD04_CNTY2_B06 anti-idiotype VHH (periplasmic extract) (VHH)
VHH: EVQLLESGGGLVQPGGSLRLSCAASGFTFNRYSMGWYRQAPGKERELVSAISSGGSGYYADSVKGRFTISRDNSKNTLYLQMNSLRAEDTAVYYCAIQDYSRIWEYIALDRRRSYYGMDYWGQGTQVTVSS
notes: Screened as periplasmic extract; also called VHH of AMD79
Q: Does B12 bind [1]?
A: no binding

B13: AMD79 (Fc fusion)
VHH-Fc: EVQLLESGGGLVQPGGSLRLSCAASGFTFNRYSMGWYRQAPGKERELVSAISSGGSGYYADSVKGRFTISRDNSKNTLYLQMNSLRAEDTAVYYCAIQDYSRIWEYIALDRRRSYYGMDYWGQGTQVTVSS
notes: also called huD04_CNTY2_B06 anti-idiotype VHH IgG1-Fc fusion
Q: Does B13 bind [2]?
A: no binding (tested: 50 nM)

B14: huD04_CNTY2_F12 anti-idiotype VHH (periplasmic extract) (VHH)
VHH: EVQLLESGGGLVQPGGSLRLSCAASGFTFSSNAMGWYRQAPGKEREFVSSISSGRSTTYADSVKGRFTISRDNSKNTLYLQMNSLRAEDTAVYYCAAHGTKYKWTRARLRSARQKQLETYRYWGQGTQVTVSS
notes: Screened as periplasmic extract; also called VHH of AMD74
Q: Does B14 bind [3]?
A: binds

B15: AMD74 (huD04_CNTY2_F12 anti-idiotype VHH IgG1-Fc fusion) (Fc fusion)
chain: EVQLLESGGGLVQPGGSLRLSCAASGFTFSSNAMGWYRQAPGKEREFVSSISSGRSTTYADSVKGRFTISRDNSKNTLYLQMNSLRAEDTAVYYCAAHGTKYKWTRARLRSARQKQLETYRYWGQGTQVTVSS
notes: not shown: IgG1 Fc
Q: Does B15 bind [4]?
A: binds

B16: huD04_CNTY2_C03 anti-idiotype VHH (periplasmic extract) (VHH)
VHH: EVQLLESGGGLVQPGGSLRLSCAASGLTFSRYAMGWYRQAPGKERELVSAISSRRSTYYADSVKGRFTISRDNSKNTLYLQMNSLRAEDTAVYYCAADYRLTSLERARYASASITYDYWGQGTQVTVSS
notes: Screened as periplasmic extract; also called VHH of AMD78
Q: Does B16 bind [1]?
A: no binding

B17: AMD69 (huD04_CNTY2_E03 anti-idiotype VHH IgG1-Fc fusion) (Fc fusion)
chain: EVQLLESGGGLVQPGGSLRLSCAASGLTYTGYAMGWYRQAPGKERELVSAISSRSSIYYADSVKGRFTISRDNSKNTLYLQMNSLRAEDTAVYYCAAGRPVALGSWRRTATWSAGLGAEYAYWGQGTQVTVSS
notes: not shown: IgG1 Fc
Q: Does B17 bind [2]?
A: no binding (tested: 50 nM)

Q: And the “EC50 (read off the curve)” value [4]?
A: ~4 nM

B18: huD04_CNTY2_E03 anti-idiotype VHH (periplasmic extract) (VHH)
VHH: EVQLLESGGGLVQPGGSLRLSCAASGLTYTGYAMGWYRQAPGKERELVSAISSRSSIYYADSVKGRFTISRDNSKNTLYLQMNSLRAEDTAVYYCAAGRPVALGSWRRTATWSAGLGAEYAYWGQGTQVTVSS
notes: Screened as periplasmic extract; also called VHH of AMD69
Q: Does B18 bind [1]?
A: no binding

B19: AMD73 (Fc fusion)
VHH-Fc: EVQLLESGGGLVQPGGSLRLSCAASGFTFSSYSIGWYRQAPGKERELVSVISSGGSTYYADSVKGRFTISRDNSKNTLYLQMNSLRAEDTAVYYCAASDWSYSWITYTGTWRLYEYWGQGTQVTVSS
notes: also called huB11_CNTY3+4_A01 anti-idiotype VHH IgG1-Fc fusion
Q: Does B19 bind [4]?
A: no binding (tested: 50 nM)

B20: huD04_CNTY2_D12 anti-idiotype VHH (periplasmic extract) (VHH)
VHH: EVQLLESGGGLVQPGGSLRLSCAASGSAFSSNAMGWYRQAPGKERELVSAISSGGSTNYADSVKGRFTISRDNSKNTLYLQMNSLRAEDTAVYYCAARNPLTYTALVSNAPSGDYYLFEYRLWGQGTQVTVSS
notes: Screened as periplasmic extract; also called VHH of AMD85
Q: What does the source list for B20?
A: binding result [1]: no binding; binding result [3]: binds

B21: LYSO_CW_P01_B11 VHH CAR (camelid B11) on Jurkat cells (other, not shown: small tags and cut ends)
chain: QVQLVESGGGLVQAGGSLRLSCAASGGIFSGGRMGWFRQAPGKEREFVAAVITRGGSTYYADSVKGRFTISRDNAKNTVYLQMNSLKPEDTAVYYCAASEVTYDEGRYIGTKSTYDTWGQGTQVTVSS
notes: camelid (not humanized) VHH; also called B11(p242)
Q: Does B21 bind [7]?
A: binds

Q: Does B21 bind (human lysozyme)?
A: no binding (tested: 10 ug/mL)

B22: p245 (other)
CAR: QVQLVESGGGLVQAGGSLRLSCAASGGIFSGGRMGWFRQAPGKEREFVAAVITRGGSTYYADSVKGRFTISRDNAKNTVYLQMNSLKPEDTAVYYCAASEVTYDEGHYIGTKSTYDTWGQGTQVTVSS
Q: Does B22 bind (human lysozyme)?
A: no binding (tested: 10 ug/mL)

B23: AMD75 (Fc fusion)
VHH-Fc: EVQLLESGGGLVQPGGSLRLSCAASGFAFSDYVMGWYRQAPGKEREFVSAIRSTTSTYYADSVKGRFTISRDNSKNTLYLQMNSLRAEDTAVYYCAADVWSGYEYDYWGQGTQVTVSS
notes: also called huB11_CNTY1_E11 anti-idiotype VHH IgG1-Fc fusion
Q: Does B23 bind [4]?
A: no binding (tested: 50 nM)

B24: AMD76 (Fc fusion)
VHH-Fc: EVQLLESGGGLVQPGGSLRLSCAASGLAFSSYAMGWYRQAPGKEREFVSVISGTGETLYADSVKGRFTISRDNSKNTLYLQMNSLRAEDTAVYYCAADVWSGYEYDYWGQGTQVTVSS
notes: also called huB11_CNTY1_B11 anti-idiotype VHH IgG1-Fc fusion
Q: Does B24 bind [4]?
A: no binding (tested: 50 nM)
